From US20190328788A1 (GENAGON THERAPEUTICS, published 2019)
Ends that are not written are not given here.

T1: transforming growth factor-beta 3 (TGF-β3) (UniProt P10600 301-412)
T1 construct: also called TGFb3; TGFB3
T1 sequence (looked up): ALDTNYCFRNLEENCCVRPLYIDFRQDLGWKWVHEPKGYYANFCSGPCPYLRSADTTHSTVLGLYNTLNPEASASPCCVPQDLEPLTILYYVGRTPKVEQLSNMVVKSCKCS

T2: Growth and Differentiation Factor 15 (GDF15) (UniProt Q99988 197-308, limits assumed)
T2 construct: also called MIC-1; MIC1
T2 sequence (looked up): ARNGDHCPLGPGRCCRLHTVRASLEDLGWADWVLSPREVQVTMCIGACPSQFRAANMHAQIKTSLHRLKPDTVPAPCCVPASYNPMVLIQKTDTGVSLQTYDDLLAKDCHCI

T3: transforming growth factor-beta 2 (TGF-β2) (UniProt P61812 303-414)
T3 construct: also called TGFb2; TGFB2
T3 sequence (looked up): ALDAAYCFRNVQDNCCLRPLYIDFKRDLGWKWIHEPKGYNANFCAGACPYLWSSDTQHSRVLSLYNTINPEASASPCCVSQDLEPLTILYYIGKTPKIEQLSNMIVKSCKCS

B1: CLPTM1 peptide fragment of SEQ ID NO: 19 (peptide)
peptide: MIKRAEDYGPVEVISHWHPNG
modifications: also: biotinylated, site not given here
B2: CLPTM1 peptide fragment of SEQ ID NO: 30 (peptide)
peptide: RNLFPKDTLMNLHVYISEHEG
modifications: also: biotinylated, site not given here
B3: CLPTM1 peptide fragment of SEQ ID NO: 31 (peptide)
peptide: FTDFNATSALFWEQHDLVYGG
modifications: also: biotinylated, site not given here
B4: CLPTM1 peptide fragment of SEQ ID NO: 22 (peptide)
peptide: NDYWNLQKDYYPINESLASLG
modifications: also: biotinylated, site not given here
B5: CLPTM1 peptide fragment of SEQ ID NO: 24 (peptide)
peptide: STKSPWNFLGDELYEQSDEEG
modifications: also: biotinylated, site not given here
B6: CLPTM1 peptide fragment of SEQ ID NO: 15 (peptide)
peptide: SDGCYEHFAELDIPQSVQQNG
modifications: also: biotinylated, site not given here
B7: CLPTM1 peptide fragment of SEQ ID NO: 20 (peptide)
peptide: ITINIVDDHTPWVKGSVPPPG
modifications: also: biotinylated, site not given here
B8: CLPTM1 peptide fragment of SEQ ID NO: 13 (peptide)
peptide: LMNLHVYISEHEHFTDFNATG
modifications: also: biotinylated, site not given here
B9: CLPTM1 peptide fragment of SEQ ID NO: 14 (peptide)
peptide: SALFWEQHDLVYGDWTSGENG
modifications: also: biotinylated, site not given here
B10: CLPTM1 peptide fragment of SEQ ID NO: 16 (peptide)
peptide: GSIYIHVYFTKSGFHPDPRQG
modifications: also: biotinylated, site not given here

Target: T1, transforming growth factor-beta 3 …
Experiment: ELISA, peptide on streptavidin plate, ligand 100 ng/ml
Protocol: (§1) Biotinylated synthetic peptide fragments from CLPTM1 (JPT peptides, Germany) were immobilized in a streptavidin 96 well plate (#15500 Pierce) at 1 μM in PBS over night at +4° C. Plate was then washed 4 times in 300 μl PBS with 0.05% tween-20 (wash buffer). The plate was then blocked with PBS 1% BSA and 0.05% tween-20 (blocking buffer) for 1.5 hours at room temperature, then washed 4 times in wash buffer. Ligands GDF15, TGFb1, TGFb2 and TGFb3 (Abcam) were added in blocking buffer at 100 ng/ml and incubated at room temperature for 2 hours. The plate was then washed 8 times in 300 μL wash buffer with 2× NaCl. An anti-GDF15 antibody was added at 1 μg/ml (R&D Systems, goat polyclonal) or a pan-specific anti-TGFb antibody (R&D Systems, mouse 1 D11), and the plate incubated in blocking buffer for 1 hour at room temperature followed by washing with 4×300 μl wash buffer. HAF017 anti-goat-HRP antibody (to detect the anti-GDF15 antibody) or Santa Cruz sc-2005 Goat anti-mouse-HRP (to detect the pan-specific anti-TGFb antibody) was added and the plate incubated for 1 hour in blocking buffer followed by a wash. TMB substrate was added and stopped after 15 minutes with H₂SO₄. OD 450-620 was measured in an ELISA reader.

Point of comparison: B2, “ELISA OD450” value 0.041 OD450. Against it:
- B1 — lower, 0.004 OD450
- B3 — lower, 0.029 OD450
- B4 — lower, 0.025 OD450
- B5 — lower, 0.012 OD450
- B6 — lower, 0.004 OD450
- B7 — higher, 0.068 OD450
- B8 — lower, 0.014 OD450
- B9 — lower, 0.02 OD450
- B10 — lower, 0.02 OD450

Target: T2, Growth and Differentiation Factor 15 …
Experiment: as above
Protocol: as §1

Point of comparison: B9, “ELISA OD450” value 0.034 OD450. Against it:
- B1 — lower, 0.028 OD450
- B2 — higher, 0.055 OD450
- B3 — higher, 0.061 OD450
- B4 — higher, 0.038 OD450
- B5 — higher, 0.053 OD450
- B6 — lower, 0.024 OD450
- B7 — higher, 0.098 OD450
- B8 — higher, 0.058 OD450
- B10 — higher, 0.149 OD450

Target: T4, transforming growth factor-beta 1 (TGF-β1) (UniProt P01137 279-390)
T4 construct: also called TGFb1; TGFB1
Experiment: as above
Protocol: as §1

T4 sequence (P01137 279-390 limits assumed): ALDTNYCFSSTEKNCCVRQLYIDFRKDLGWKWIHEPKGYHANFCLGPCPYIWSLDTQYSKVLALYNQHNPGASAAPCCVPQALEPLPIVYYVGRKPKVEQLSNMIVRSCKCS

Point of comparison: B6, “ELISA OD450” value 0.006 OD450. Against it:
- B1 — the same, 0.006 OD450
- B2 — higher, 0.015 OD450
- B3 — higher, 0.032 OD450
- B4 — higher, 0.017 OD450
- B5 — higher, 0.018 OD450
- B7 — higher, 0.011 OD450
- B8 — higher, 0.02 OD450
- B9 — higher, 0.022 OD450
- B10 — higher, 0.122 OD450

Target: T3, transforming growth factor-beta 2 …
Experiment: as above
Protocol: as §1

Point of comparison: B1, “ELISA OD450” value 0.002 OD450. Against it:
- B2 — higher, 0.009 OD450
- B3 — higher, 0.014 OD450
- B4 — higher, 0.005 OD450
- B5 — higher, 0.007 OD450
- B6 — lower, -0.003 OD450
- B7 — higher, 0.005 OD450
- B8 — higher, 0.005 OD450
- B9 — the same, 0.002 OD450
- B10 — higher, 0.107 OD450
